Reference: the DeepSol protein solubility set

Experiment: soluble on expression in E. coli; label from the status in PepcDB or PDB records
In the case of “MGSDKIHHHHHHMTQHVIEMREITKKFGDFVANDHINLNVRKGEIHALLGENGAGKSTLMNMLAGLLEPTSGEIVINDKPVQIDSPSKSAKLGIGMVHQHFMLVEAFTVAENIILGNEVVKNGCLDLNQASKDIKVLSEKYGLAINPSAKVSDISVGAQQRVEILKTLYRGADILIFDEPTAVLTPAEIKELMTIMKNLVKEGKSIILITHKLDEIRAVADRVTVIRRGKSIETVDVAGATSQDLAEMMVGRSVSFTTSKKAAEPKDVVLSIKNLEVDENRGVPAVKGLSLDVRAGEIVGIAGIDGNGQSELIQAITGLRKVKSGSIMIKNNEVTHLSSRKITELSVGHVPEDRHRDGLILDLSLAENTALQTYYKQPLSQNGILNYTKINDYARQLMKEFDVRGANELVPARGFSGGNQQKAIIAREVDRDPDLLIVSQPTRGLDVGAIEYIHKRLIKERDKGKAVLVVSFELDEILNLSDRIAVIHDGKIQGIVSPENTNKQELGILMAGGSIHKEEGHV”, the “soluble on expression in E. coli” value is reported as “not soluble”. With “MKIYYLGPEGSYTEKAALKFAELTNLKITPAESIYSVFREVERGNYGVVPTENSIEGSVTLTLDLLLRFPVKIFGETSLEIKHALLGYDLSKIRVVLSHPQALAQCREFIQRMRWGVRETNSTAEAVKIVAESNDPTLAAIGSREAAEIYGLKVLAEDIQDYPNNKTRFILIGREDM” the “soluble on expression in E. coli” value was “not soluble”. With “MALILTFLGKSGVARTKIAIAAAKLLASQGKRVLLAGLAEPVLPLLLEQTLTPDPQQIAPNLEVVQFQSSVLLERNWEEVKKLEAQYLRTPIIKEVYGQELVVLPGMDSALALNAIREYDASGKYDAIVYDGTGDAFTLRMLGLPESLSWYVRRFRQLFVNSDLGKTIAESPLIQPLISSFFNVNWTADNFAQPTNQVNNFLDKGKEALADPKRVAAFLVTTADPLEVVSVRYLWGSAQQIGLTIGGVIQVSSQTEGDLSAEFTPLSVTVVPDVTKGDWQPLIDALPNFVEQAEQAPKPITIDTHNRQVRLFLPGFDKKQVKLTQYGPEVTVEAGDQRRNIFLPPALSGRPITGAKFQNNYLIISFLEHHHHHH” the “soluble on expression in E. coli” value was “soluble”. In the case of “MSLRVLGIETSCDETAVAVLDDGKNVVVNFTVSQIEVHQKFGGVVPEVAARHHLKNLPILLKKAFEKVPPETVDVVAATYGPGLIGALLVGLSAAKGLAISLEKPFVGVNHVEAHVQAVFLANPDLKPPLVVLMVSGGHTQLMKVDEDYSMEVLGETLDDSAGEAFDKVARLLGLGYPGGPVIDRVAKKGDPEKYSFPRPMLDDDSYNFSFAGLKTSVLYFLQREKGYKVEDVAASFQKAVVDILVEKTFRLARNLGIRKIAFVGGVAANSMLREEVRKRAERWNYEVFFPPLELCTDNALMVAKAGYEKAKRGMFSPLSLNADPNLNVEGHHHHHH”, the “soluble on expression in E. coli” value is reported as “soluble”. For “MKFSDFFHAWLHESYYKNAVSIGKNGDFFTAVSVGNLFGTLLAKHFLNLIDEKILKPPLELVEIGANEGYLSRDFLAALLELRPEIFSQISFFIIEPHEKLRTLQKKTLEGVEFTHKNSLKECHFKNAFFFCNELFDSFTCELIDHDKMAFVENFKLIFKNMDENLITKCKALNLTKGELSLELENFFKDLNQTCERFIFAGFDYGTLNPQSFSLRIYQKHEVFSPFEVSLKDFFGKSDLTYNVNFTHLQKLIKEYDFKPLAFKKQSLAFMDFGFEDLLEYAKNKNIKTYESFLSQAKILFFNFDEKFHFFEFQKNMGHHHHHHSH”, the “soluble on expression in E. coli” value was “soluble”. With “MTEDRNFDDIAHKFAKNIYGSDKGEIRQVIVWEDLEQLLSQLDTQKVPLHVLDAGGGLAQVSQKIARLGHRVTLCDLSSEMLQLAEQDIANNGLLEQYRFVHSPVQTIQAHLDAPVDLVLFHAVMEWLAEPKPALQNLLAQVRPGGMVSVMFYNYHGLVYKNAVCGNIPHVLEDMPHRKRFKLQPQKGLLPEEVYQWIEESSFEICGKSGIRCFSDYIGNMKNMGEYQYEDLVALERKFCRQEPYLSLGRYIHVWAKKKQ” the “soluble on expression in E. coli” value was “not soluble”. For “MGSDKIHHHHHHMLERTTRHVRPSLDGQAFYERCTQILSELDDAESSLRNVIAQPRGLLRVDLSGAHATKIVLPNIDQFHELYPDIELVISTGDRLVDLIREGIDCVVRAGRLDDSTLIARHLVDMPQVICASPDYLNKHGTPEQPEDLLSHYCVNFFSTSGGRNYPFELMVNGKKQDYFLKSWIAVNDAENYVLSALQGAGLIQVPHYHVANELKNGRLVEVLSEWESPKMSVSALYPQHRQLSPRVRVFVAWLSELYTGYFANFEYPQK”, the “soluble on expression in E. coli” value was “not soluble”.
